Where two headings read alike, the source gives them in different places.
Legend:
[1] = target: T1, Recombinant human CTLA-4-Fc fusion protein (R&D Systems, Catalog number 352-CTY/CF) (human, UniProt P16410 37-162); experiment: BLI (Fortebio), mAb captured on sensors, rhCTLA-4-Fc in solution 100 nM to 1.6 nM
T1 construct: range 37-162; Bought reagent; also called rhCTLA-4; rhCTLA-4-Fc; not shown: immunoglobulin gamma I Fc region
T1 sequence (looked up): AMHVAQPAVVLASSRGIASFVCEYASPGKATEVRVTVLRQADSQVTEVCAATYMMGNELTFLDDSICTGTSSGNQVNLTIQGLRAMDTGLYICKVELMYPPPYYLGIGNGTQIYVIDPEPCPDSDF
Experimental: Kinetic analysis of binding to rhCTLA-4. […] The sensors were then blocked in the blocking solution for 5 min. Recombinant human CTLA-4-Fc protein was two-fold serial diluted in the blocking solution to 7 different concentrations, range from 100 nM to 1.6 nM. Kinetic association assays were started by putting antibody-capturing sensors into above serial diluted CTLA-4-Fc solutions. One sensor was immersed into the blocking solution as negative control. After 5 min binding, all sensors were moved to the blocking solution to start kinetic dissociation assays. Assays were stopped after 7 min.

[2] = target: T1, Recombinant human CTLA-4-Fc fusion …; experiment: ELISA, plates coated with purified rhCTLA-4, 4-parameter fit; C5 mAb
[3] = target: T1, Recombinant human CTLA-4-Fc fusion …; experiment: ELISA on coated rhCTLA-4, goat anti-human IgG F(ab') alkaline phosphatase, OD 415 nm
[4] = target: T1, Recombinant human CTLA-4-Fc fusion …; experiment: as above; remark: listed apart in the source
[5] = target: T1, Recombinant human CTLA-4-Fc fusion …; experiment: competition ELISA on coated rhCTLA-4-Fc, 10 ng/ml biotin-B7-1-Fc mixed with the antibody, streptavidin alkaline phosphatase, absorption at 405 nm
Experimental: Human recombinant CTLA-4-Fc (2 ug/ml) in 50 ul of 20 mM NaHCO3, pH 9.7 was coated on 96-well plates and incubated at 4° C. overnight. After rhCTLA-4-Fc was removed, the plates were blocked with 100 ul of 3% BSA in wash/dilution buffer (TBS buffer, pH 7.0 containing 0.05% Tween-20) at 37° C. for 2 hours. […] The mixtures (50 ul/well) were added to rhCTLA-4-Fc coated plates and incubated at 37° C. for 2 hours. The solution was decanted, and the plates were washed 3 times with wash buffer. Alkaline phosphatase conjugated streptavidin (Herochem Inc., China) was diluted 2500-fold in binding buffer and add 50 ul/well to plates. After the plates were incubated at 37° C. for 2 hours, the AP-streptavidin solution was decanted, and the plates were washed 6 times with wash buffer. Alkaline phosphatase substrate pNpp solution was added 50 ul/well to plates. The plates were incubated at 37° C. for 20 min and read at 405 nm using a Bio-Rad microplate reader. […] All samples were tested in duplicate.

[6] = target: T1, Recombinant human CTLA-4-Fc fusion …; experiment: ELISA, plates coated with purified rhCTLA-4, 4-parameter fit; C2 mAb
[7] = target: T1, Recombinant human CTLA-4-Fc fusion …; experiment: ELISA on coated CTLA-4 (rhCTLA-4-Fc), scFv phage at one amount, anti-M13-HRP, absorbance at 450 nm

B1: C5 mAb (anti-human CTLA-4 full length human monoclonal antibody) (antibody, V domains shown)
VH: QVQLVQSGAEVKKPGASVKVSCKASGFSFPNYYMHWVRQAPGQGLEWMGIISPTGGSRTYAQKFQGRVTITRDTSTSTVYMELSSLRSEDTAVYYCAREMYNWNGGWDYGMDVWGQGTLVTVSS
VL: QSALTQSASVSGFPGQSITVSCVGTNSDVEAYDLVSWYRQHPDKSPNLLIYDNYKRPSGVSDRFSAFKSGNTASLTISGLQAEDEAYYYCCSYAGFSTWIFGAGTQLTVLG
notes: also called clone C5; KD6001-5
- Kd [1]: 2.2 nM
- koff [1]: 0.00061 s⁻¹
- kon [1]: 280000 M⁻¹ s⁻¹
- EC50 [2]: 0.066 µg/mL
- EC50 (read off the curve) [3]: ~0.08 µg/mL

B2: C2 mAb (anti-human CTLA-4 full length human monoclonal antibody) (antibody, V domains shown)
VH: QVQLVQSGGGVVQPGRSLRLSCAASGFTFSSYGMHWVRQAPGKGLEWVAVIWYDGSRQYYADSVKGRFTISRDDSKNTMYLQMNSLRAEDTAVYYCARGGFWGAFDIWGQGTMVTVSS
VL: DVVMTQSPGTLSLSPGEGATLSCRASQHVISSYLAWYQQKPGQAPRLLVYGASSRDTGVSDRFTGSGSGTDFTLTISRLEPEDSAVYFCQQYGTSPWTFGQGTKLEIKR
notes: also called clone C2; KD6001-2
- Kd [1]: 0.86 nM
- koff [1]: 0.00048 s⁻¹
- kon [1]: 550000 M⁻¹ s⁻¹
- EC50 (read off the curve) [4]: ~0.03 µg/mL
- IC50 (read off the curve) [5]: ~0.03 µg/mL
- EC50 [6]: 0.025 µg/mL

B3: C15 (scFv, V domains shown, not shown: large carriers; small tags and cut ends)
VH: QVQLVQSGAEVKKPGSSVKVSCKASGGTFSSYAISWVRQAPGQGLEWMGGIIPIFGTANYAQKFQGRVTITADESTSTAYMELSSLRSEDTAVYYCARDTAMALFYYYYGMDVWGQGTLVTVSS
VL: QSALTQPASVSGSPGQSTTISCTGTSSDVGGYNYVSWYQQHPGKAPKLMIYEVSNRPSGVSNRFSGSKSGNTASLTISGLQAEDEADYYCSSYRSSGTPYVFGTGTKLTVL
notes: scFv phage form of clone C15; also called clone C15 scFv phage; C15 scFv; copies: 1 + 1
- binding result [7]: binds

— patent publication US20200262921A1 (SHANGHAI KANDA BIOTECHNOLOGY, published 2020)
